The results in this text go back to patent publication US20030232757A1.

For this assay, the target named is T1, CryET39 crystal protein (Bacillus thuringiensis delta-endotoxin, approximately 44-kDa) (Bacillus thuringiensis (strain EG5899)).
T1 sequence: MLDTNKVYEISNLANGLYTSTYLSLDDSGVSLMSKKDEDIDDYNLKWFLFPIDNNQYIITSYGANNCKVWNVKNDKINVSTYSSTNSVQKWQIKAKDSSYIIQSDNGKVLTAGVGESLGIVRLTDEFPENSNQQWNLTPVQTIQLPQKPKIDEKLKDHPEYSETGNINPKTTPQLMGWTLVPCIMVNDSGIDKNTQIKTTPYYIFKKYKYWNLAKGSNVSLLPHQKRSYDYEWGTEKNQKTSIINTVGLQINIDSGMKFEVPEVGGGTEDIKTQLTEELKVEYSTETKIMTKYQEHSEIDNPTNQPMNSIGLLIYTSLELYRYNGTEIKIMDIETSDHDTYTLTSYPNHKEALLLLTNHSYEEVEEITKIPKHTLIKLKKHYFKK
Nature of the assay: cell-based or functional assay.

B1: CryET74 crystal protein (Bacillus thuringiensis delta-endotoxin, approximately 13-15-kDa) (protein)
chain: MSAREVHIEINNKTRHTLQLEDKTKLSGGRWRTSPTNVARDTIKTFVAESHGFMTGVEGIIYFSVNGDAEISLHFDNPYIGSNKCDGSSDKPEYEVITQSGSGDKSHVTYTIQTVSLRL
As for B1, the Percent Control (WCRW larval mortality corrected for diluent control); 50:50 mixture EG11935 (CryET74) + EG11937 (1) (CryET39), dose 80 µg/well (percent control) came out at 100; the Percent Control (WCRW larval mortality corrected for diluent control); 50:50 mixture EG11935 (CryET74) + EG11937 (1) (CryET39), dose 160 µg/well (percent control) was found to be 100; the Percent Control (WCRW larval mortality corrected for diluent control); 50:50 mixture EG11935 (CryET74) + EG11937 (2) (CryET39), dose 80 µg/well (percent control) amounted to 100; the Percent Control (WCRW larval mortality corrected for diluent control); 50:50 mixture EG11935 (CryET74) + EG11937 (2) (CryET39), dose 160 µg/well (percent control) came to 93.3. Moreover, the Percent Control (WCRW larval mortality corrected for diluent control); EG11936 (CryET39 + CryET74 co-expressed), dose 80 µg/well (percent control) worked out at 100 and the Percent Control (WCRW larval mortality corrected for diluent control); EG11936 (CryET39 + CryET74 co-expressed), dose 160 µg/well (percent control) came to 100.
